Like-named read-outs stand apart in the source and are kept apart here. Numbered stars: 1 amine (or outer) side, 2 acyl side, 3 side chain; on linkers, the order of the positions; unused ones are H or OH. Square brackets hold non-standard residues; d marks the D form. Side chains are listed from the residue outwards. Ends that are not written are not given here. * marks the point of attachment. C18 = C18 fatty acid (C16-C22 fatty acids conjugated via γGlu/8-amino-3,6-dioxaoctanoic acid spacers); Biotin = O=C1N[C@H]2[C@H](CS[C@H]2CCCCC(=O)*)N1; γGlu = O=C(O)[C@H](CCC(=O)[*:2])N[*:1]; biotin‑maleimide = B1-MAL; AEEA = NCCOCCOCC(=O)O; Aib = CC(C)(N)C(=O)O; MAL = maleimide
How the values were obtained:
Test in all cases: cell-based or functional assay
[1] = biological target: T1, human glucose-dependent insulinotropic polypeptide receptor (GIPR), expressed on CHO-K1 cells (human, UniProt P48546 22-466)
T1 sequence (looked up): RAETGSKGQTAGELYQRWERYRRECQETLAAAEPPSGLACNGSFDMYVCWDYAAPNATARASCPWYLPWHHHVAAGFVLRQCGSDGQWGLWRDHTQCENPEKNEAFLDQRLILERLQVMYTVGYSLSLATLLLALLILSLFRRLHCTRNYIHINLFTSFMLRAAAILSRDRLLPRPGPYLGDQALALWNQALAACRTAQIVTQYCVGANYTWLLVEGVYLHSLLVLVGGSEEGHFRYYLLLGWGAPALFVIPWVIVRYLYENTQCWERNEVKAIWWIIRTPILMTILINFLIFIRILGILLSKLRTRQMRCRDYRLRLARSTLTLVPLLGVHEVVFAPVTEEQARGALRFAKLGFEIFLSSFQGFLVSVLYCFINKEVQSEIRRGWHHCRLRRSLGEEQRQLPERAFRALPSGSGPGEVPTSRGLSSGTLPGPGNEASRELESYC

[2] = biological target: T2, human GLP-1 receptor (GLP-1R), expressed on CHO-K1 cells (human, UniProt P43220 24-463)
[3] = biological target: T3, human glucagon receptor (GCGR), expressed on CHO-K1 cells (human, UniProt P47871 26-477)
[4] = biological target: T1, human glucose-dependent insulinotropic …; remark: listed apart in the source
[5] = biological target: T2, human GLP-1 receptor (GLP-1R), …; remark: listed apart in the source
[6] = biological target: T3, human glucagon receptor (GCGR), …; remark: listed apart in the source
[7] = biological target: T1, human glucose-dependent insulinotropic …; remark: listed apart in the source
[8] = biological target: T2, human GLP-1 receptor (GLP-1R), …; remark: listed apart in the source
[9] = biological target: T3, human glucagon receptor (GCGR), …; remark: listed apart in the source
[10] = biological target: T1, human glucose-dependent insulinotropic …; remark: listed apart in the source
[11] = biological target: T2, human GLP-1 receptor (GLP-1R), …; remark: listed apart in the source
[12] = biological target: T3, human glucagon receptor (GCGR), …; remark: listed apart in the source
[13] = biological target: T1, human glucose-dependent insulinotropic …; remark: listed apart in the source
[14] = biological target: T2, human GLP-1 receptor (GLP-1R), …; remark: listed apart in the source
[15] = biological target: T3, human glucagon receptor (GCGR), …; remark: listed apart in the source
[16] = biological target: T3, human glucagon receptor (GCGR), …; remark: listed apart in the source
[17] = biological target: T2, human GLP-1 receptor (GLP-1R), …; remark: listed apart in the source
[18] = biological target: T1, human glucose-dependent insulinotropic …; remark: listed apart in the source
[19] = biological target: T1, human glucose-dependent insulinotropic …; remark: listed apart in the source
[20] = biological target: T2, human GLP-1 receptor (GLP-1R), …; remark: listed apart in the source
[21] = biological target: T3, human glucagon receptor (GCGR), …; remark: listed apart in the source
[22] = biological target: T3, human glucagon receptor (GCGR), …; remark: listed apart in the source
[23] = biological target: T2, human GLP-1 receptor (GLP-1R), …; remark: listed apart in the source
[24] = biological target: T1, human glucose-dependent insulinotropic …; remark: listed apart in the source

T3 sequence (P47871 26-477): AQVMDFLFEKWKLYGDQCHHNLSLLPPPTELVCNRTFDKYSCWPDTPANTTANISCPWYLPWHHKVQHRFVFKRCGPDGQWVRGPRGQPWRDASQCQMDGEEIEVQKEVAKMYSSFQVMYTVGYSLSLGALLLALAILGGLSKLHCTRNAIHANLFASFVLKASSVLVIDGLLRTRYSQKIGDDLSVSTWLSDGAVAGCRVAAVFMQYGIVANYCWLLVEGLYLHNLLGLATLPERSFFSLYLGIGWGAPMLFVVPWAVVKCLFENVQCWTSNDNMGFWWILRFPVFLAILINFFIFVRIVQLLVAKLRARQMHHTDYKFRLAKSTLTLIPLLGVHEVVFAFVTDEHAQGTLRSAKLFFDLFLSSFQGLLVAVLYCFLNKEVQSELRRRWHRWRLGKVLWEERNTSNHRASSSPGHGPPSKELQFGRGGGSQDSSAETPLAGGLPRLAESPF

Q: Y[Aib]QGTFTSDYSKYLDYMMARDFVQWLIEGGPSSGAPPPSC-NH2 (not fully specified (residue 40)) [Peptide No. 5-1A] was tested. Which “Relative % to native ligand” value [1] did it give?
A: Its value is 1%.

Q: What about the “Relative % to native ligand” value [2] of the same binder?
A: The value was 187%.

Q: And the “Relative % to native ligand” value [3]?
A: The value was 24%.

Q: What about the “Activity relative to GLP-1 (%)” value [4] of the same binder?
A: Its value is 1%.

Q: What about the “Activity relative to GLP-1 (%)” value [5] of the same binder?
A: Its value is 100%.

Q: What about the “Activity relative to GLP-1 (%)” value [6] of the same binder?
A: Its value is 13%.

Q: What about the “Relative % to non-lipidated peptide” value [7] of the same binder?
A: Its value is 11%.

Q: What about the “Relative % to non-lipidated peptide” value [8] of the same binder?
A: Its value is 159%.

Q: And the “Relative % to non-lipidated peptide” value [9]?
A: The value was 0%.

Q: What about the “Ratio vs. GLP-1R” value [10] of the same binder?
A: The value was 1.

Q: And the “Ratio vs. GLP-1R” value [11]?
A: The value was 100.

Q: And the “Ratio vs. GLP-1R” value [12]?
A: Its value is 13.

Q: What about the “EC50 (nM), cAMP assay” value [13] of the same binder?
A: The value was 53.9 nM.

Q: What about the “EC50 (nM), cAMP assay” value [14] of the same binder?
A: The value was 0.269 nM.

Q: And the “EC50 (nM), cAMP assay” value [15]?
A: Its value is 0.576 nM.

Q: For H[Aib]QGTFTSDWSKYLDQQMAQDFVDWLINGGPSSGAPPPSC-NH2 [Peptide No. 12 (with C-terminal cysteine)], which “Percentage change in EC50 relative to GCG at human GCGR (%)” value [16] is on record?
A: Its value is 1200%.

Q: What about the “Percentage change in EC50 relative to GLP-1 at human GLP-1R (%)” value [17] of the same binder?
A: Its value is 303%.

Q: And the “Percentage change in EC50 relative to GIP at human GIPR (%)” value [18]?
A: The value was 4%.

Q: With H[Aib]QGTFTSDHSKYLDGAWAADFVMWLLDGGPSSGAPPPSC-NH2 [Peptide No. 57 (with C-terminal cysteine)] as the binder, how does the “Percentage change in EC50 relative to GCG at human GCGR (%)” value [16] read?
A: Its value is 1%.

Q: And the “Percentage change in EC50 relative to GLP-1 at human GLP-1R (%)” value [17]?
A: Its value is 1%.

Q: What about the “Percentage change in EC50 relative to GIP at human GIPR (%)” value [18] of the same binder?
A: Its value is 0%.

Q: With H[Aib]QGTFTSDYSKYLDYMMARDFVQWLIEGGPSSGAPPPSC([MAL-AEEA-AEEA-γGlu-C18])-NH2 [Peptide No. 5A (peptide 5, A type: lipid at Cys40)] as the binder, how does the “EC50 (nM), cAMP assay” value [19] read?
A: Its value is 140 nM.

Q: What about the “EC50 (nM), cAMP assay” value [20] of the same binder?
A: Its value is 0.187 nM.

Q: And the “EC50 (nM), cAMP assay” value [21]?
A: Its value is 9.29 nM.

Q: And the “EC50 (nM), cAMP assay” value [13]?
A: The value was 157 nM.

Q: And the “EC50 (nM), cAMP assay” value [14]?
A: Its value is 0.0967 nM.

Q: And the “EC50 (nM), cAMP assay” value [15]?
A: The value was 1.71 nM.

Q: What does the source list for H[Aib]QGTFTSDYSKLLDYMMQRDFVQWLLEGGPSSGAPPPSC([MAL-AEEA-AEEA-γGlu-C18])-NH2 [Peptide No. 5-5A]?
A: Relative % to native ligand [1]: 14%; Relative % to native ligand [2]: 673%; Relative % to native ligand [3]: 1%; Activity relative to GLP-1 (%) [4]: 2%; Activity relative to GLP-1 (%) [5]: 100%; Activity relative to GLP-1 (%) [6]: 0%; Relative % to non-lipidated peptide [7]: 3%; Relative % to non-lipidated peptide [8]: 40%; Relative % to non-lipidated peptide [9]: 1%; Ratio vs. GLP-1R [10]: 2; Ratio vs. GLP-1R [11]: 100; Ratio vs. GLP-1R [12]: 0; EC50 (nM), cAMP assay [13]: 5.17 nM; EC50 (nM), cAMP assay [14]: 0.0747 nM; EC50 (nM), cAMP assay [15]: 9.43 nM

Q: For H[Aib]QGTFTSDYSK([AEEA-AEEA-γGlu-C18])YLDYMMARDFVQWLIEGGPSSGAPPPSC(biotin‑maleimide)-NH2 [Peptide No. 5C (peptide 5, C type: lipid at Lys12 and biotin at Cys40)], which “EC50 (nM), cAMP assay” value [19] is on record?
A: Its value is 24.2 nM.

Q: And the “EC50 (nM), cAMP assay” value [20]?
A: The value was 0.0772 nM.

Q: And the “EC50 (nM), cAMP assay” value [21]?
A: Its value is 3.23 nM.

Q: How did the “Percentage change in EC50 relative to GCG at human GCGR (%)” value [22] turn out when H[Aib]QGTFTSDASKYLDRDWTGDFVQWLIDGGPSSGAPPPSC([MAL-AEEA-AEEA-γGlu-C18])-NH2 [Peptide No. 32A (peptide 32, A type: lipid at Cys40)] was run?
A: Its value is 0%.

Q: What about the “Percentage change in EC50 relative to GLP-1 at human GLP-1R (%)” value [23] of the same binder?
A: The value was 1%.

Q: What about the “Percentage change in EC50 relative to GIP at human GIPR (%)” value [24] of the same binder?
A: The value was 0%.

Q: Which “Percentage change in EC50 relative to GCG at human GCGR (%)” value [22] does the source give for H[Aib]QGTFTSDWSKYLDQQMAQDFVDWLINGGPSSGAPPPSC([MAL-AEEA-AEEA-γGlu-C18])-NH2 [Peptide No. 12A (peptide 12, A type: lipid at Cys40)] here?
A: The value was 15%.

Q: What about the “Percentage change in EC50 relative to GLP-1 at human GLP-1R (%)” value [23] of the same binder?
A: Its value is 296%.

Q: What about the “Percentage change in EC50 relative to GIP at human GIPR (%)” value [24] of the same binder?
A: The value was 8%.

Q: Y[Aib]QGTFTSDYSKYLDYMMQRDFVQWLIEGGPSSGAPPPSC-NH2 (not fully specified (residue 40)) [Peptide No. 5-2A] was tested. Which “Relative % to native ligand” value [1] did it give?
A: The value was 3%.

Q: And the “Relative % to native ligand” value [2]?
A: The value was 145%.

Q: What about the “Relative % to native ligand” value [3] of the same binder?
A: Its value is 1%.

Q: And the “Activity relative to GLP-1 (%)” value [4]?
A: The value was 2%.

Q: What about the “Activity relative to GLP-1 (%)” value [5] of the same binder?
A: The value was 100%.

Q: What about the “Activity relative to GLP-1 (%)” value [6] of the same binder?
A: Its value is 0%.

Q: And the “Relative % to non-lipidated peptide” value [7]?
A: The value was 0.4%.

Q: And the “Relative % to non-lipidated peptide” value [8]?
A: Its value is 29%.

Q: And the “Relative % to non-lipidated peptide” value [9]?
A: Its value is 1%.

Q: And the “Ratio vs. GLP-1R” value [10]?
A: The value was 2.

Q: What about the “Ratio vs. GLP-1R” value [11] of the same binder?
A: Its value is 100.

Q: And the “Ratio vs. GLP-1R” value [12]?
A: Its value is 0.

Q: What about the “EC50 (nM), cAMP assay” value [13] of the same binder?
A: Its value is 24.7 nM.

Q: And the “EC50 (nM), cAMP assay” value [14]?
A: Its value is 0.348 nM.

Q: What about the “EC50 (nM), cAMP assay” value [15] of the same binder?
A: The value was 23 nM.

Q: How did the “Percentage change in EC50 relative to GCG at human GCGR (%)” value [22] turn out when H[Aib]QGTFTSDHSWYLDKWTAHDFVQWLINGGPSSGAPPPSC([MAL-AEEA-AEEA-γGlu-C18])-NH2 [Peptide No. 18A (peptide 18, A type: lipid at Cys40)] was run?
A: The value was 0%.

Q: What about the “Percentage change in EC50 relative to GLP-1 at human GLP-1R (%)” value [23] of the same binder?
A: The value was 0%.

Q: What about the “Percentage change in EC50 relative to GIP at human GIPR (%)” value [24] of the same binder?
A: Its value is 0%.

Q: Which “Percentage change in EC50 relative to GCG at human GCGR (%)” value [16] does the source give for H[Aib]QGTFTSDHSWYLDKWTAHDFVQWLINGGPSSGAPPPSC-NH2 [Peptide No. 18 (with C-terminal cysteine)] here?
A: Its value is 1%.

Q: And the “Percentage change in EC50 relative to GLP-1 at human GLP-1R (%)” value [17]?
A: The value was 40%.

Q: What about the “Percentage change in EC50 relative to GIP at human GIPR (%)” value [18] of the same binder?
A: Its value is 0%.

Q: H[Aib]QGTFTSDYSK(Biotin)YLDYMMARDFVQWLIEGGPSSGAPPPSC([MAL-AEEA-AEEA-γGlu-C18])-NH2 [Peptide No. 5B (peptide 5, B type: lipid at Cys40 and biotin at Lys12)] was tested. Which “EC50 (nM), cAMP assay” value [19] did it give?
A: Its value is 97.2 nM.

Q: What about the “EC50 (nM), cAMP assay” value [20] of the same binder?
A: Its value is 0.18 nM.

Q: What about the “EC50 (nM), cAMP assay” value [21] of the same binder?
A: The value was 15.1 nM.

Reference: US20250296960A1, “PEPTIDE COMPOSITIONS AND METHODS OF USE THEREOF” (priority 2022, published 2025)
